# Assay results as given in patent US20240109954A1 (GENERAL HOSPITAL, published 2024).
# Numbering of substitutions follows the chain as printed. Names may count otherwise.
# B1: VIC16-IgG1 (antibody)
# heavy: not shown
# light: DIVITQDTASLAVSRGQRATISCRASESVEYYGTTLMQWYQQRPGQPPKLLIYGASNVESGVPARFSGSGSGTDFSLNIHPVEEDDIAMYFCQQSRKVPYTFGGGTKLEIKRTVAAPSVFIFPPSDEQLKSGTASVVCLLNNFYPREAKVQWKVDNALQSGNSQESVTEQDSKDSTYSLSSTLTLSKADYEKHKVYACEVTHQGLSSPVTKSFNRGEC
# notes: also called VIC16 human IgG1; wild type IgG1
# B2: VIC16-SELF (antibody)
# heavy: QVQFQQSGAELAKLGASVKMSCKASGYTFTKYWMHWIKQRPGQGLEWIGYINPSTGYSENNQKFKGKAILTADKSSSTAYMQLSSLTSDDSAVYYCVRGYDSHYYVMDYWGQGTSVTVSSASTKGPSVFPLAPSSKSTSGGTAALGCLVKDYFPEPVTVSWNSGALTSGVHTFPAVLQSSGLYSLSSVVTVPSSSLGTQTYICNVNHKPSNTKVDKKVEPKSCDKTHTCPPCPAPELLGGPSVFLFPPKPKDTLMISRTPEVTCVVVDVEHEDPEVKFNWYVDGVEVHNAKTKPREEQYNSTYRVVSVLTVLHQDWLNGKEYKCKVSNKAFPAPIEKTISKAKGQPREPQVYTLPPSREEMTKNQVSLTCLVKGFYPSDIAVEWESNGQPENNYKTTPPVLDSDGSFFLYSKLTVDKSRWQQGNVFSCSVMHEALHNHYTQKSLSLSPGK
# light: B1 light
# B3: VIC16-EFTEA (antibody)
# heavy: QVQFQQSGAELAKLGASVKMSCKASGYTFTKYWMHWIKQRPGQGLEWIGYINPSTGYSENNQKFKGKAILTADKSSSTAYMQLSSLTSDDSAVYYCVRGYDSHYYVMDYWGQGTSVTVSSASTKGPSVFPLAPSSKSTSGGTAALGCLVKDYFPEPVTVSWNSGALTSGVHTFPAVLQSSGLYSLSSVVTVPSSSLGTQTYICNVNHKPSNTKVDKKVEPKSCDKTHTCPPCPAPELLAGPSVFLFPPKPKDTLMISRTPEVTCVVVDVEFEDPEVKFNWYVDGVEVHNAKTKPREEQYNSTYRVVSVLTVLHQDWLNGKEYKCKVTNKALPAPEEKTISKAKGQPREPQVYTLPPSREEMTKNQVSLTCLVKGFYPSDIAVEWESNGQPENNYKTTPPVLDSDGSFFLYSKLTVDKSRWQQGNVFSCSVMHEALHNHYTQKSLSLSPGK
# light: B1 light
# B4: VIC16-DVNH (antibody)
# heavy: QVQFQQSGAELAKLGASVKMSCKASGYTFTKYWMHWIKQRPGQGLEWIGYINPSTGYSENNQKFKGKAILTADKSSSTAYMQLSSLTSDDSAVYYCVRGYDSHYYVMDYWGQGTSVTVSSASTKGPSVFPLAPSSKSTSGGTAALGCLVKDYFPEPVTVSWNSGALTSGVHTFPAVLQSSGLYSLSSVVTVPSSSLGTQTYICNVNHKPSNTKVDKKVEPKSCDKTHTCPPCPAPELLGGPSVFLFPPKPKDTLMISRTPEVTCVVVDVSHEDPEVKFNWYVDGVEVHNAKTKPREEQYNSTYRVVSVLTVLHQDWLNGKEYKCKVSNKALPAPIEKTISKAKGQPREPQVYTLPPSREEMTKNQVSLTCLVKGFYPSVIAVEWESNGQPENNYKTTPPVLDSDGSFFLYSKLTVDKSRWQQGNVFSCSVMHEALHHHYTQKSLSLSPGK
# light: B1 light
# B5: VIC16-MLNS (antibody)
# heavy: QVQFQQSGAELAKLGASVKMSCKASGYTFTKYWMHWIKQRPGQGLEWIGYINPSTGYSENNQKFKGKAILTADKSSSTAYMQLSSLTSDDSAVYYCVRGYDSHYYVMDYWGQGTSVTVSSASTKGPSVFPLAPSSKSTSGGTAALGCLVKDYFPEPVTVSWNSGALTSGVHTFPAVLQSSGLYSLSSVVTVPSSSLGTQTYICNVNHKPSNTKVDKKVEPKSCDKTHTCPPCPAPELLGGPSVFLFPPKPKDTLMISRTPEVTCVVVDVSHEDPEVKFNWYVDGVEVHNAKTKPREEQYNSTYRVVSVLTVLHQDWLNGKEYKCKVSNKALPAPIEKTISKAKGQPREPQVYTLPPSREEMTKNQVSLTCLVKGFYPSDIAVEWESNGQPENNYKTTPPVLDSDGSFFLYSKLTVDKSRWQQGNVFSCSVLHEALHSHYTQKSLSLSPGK
# light: B1 light
# B6: VIC16-K326W (antibody)
# heavy: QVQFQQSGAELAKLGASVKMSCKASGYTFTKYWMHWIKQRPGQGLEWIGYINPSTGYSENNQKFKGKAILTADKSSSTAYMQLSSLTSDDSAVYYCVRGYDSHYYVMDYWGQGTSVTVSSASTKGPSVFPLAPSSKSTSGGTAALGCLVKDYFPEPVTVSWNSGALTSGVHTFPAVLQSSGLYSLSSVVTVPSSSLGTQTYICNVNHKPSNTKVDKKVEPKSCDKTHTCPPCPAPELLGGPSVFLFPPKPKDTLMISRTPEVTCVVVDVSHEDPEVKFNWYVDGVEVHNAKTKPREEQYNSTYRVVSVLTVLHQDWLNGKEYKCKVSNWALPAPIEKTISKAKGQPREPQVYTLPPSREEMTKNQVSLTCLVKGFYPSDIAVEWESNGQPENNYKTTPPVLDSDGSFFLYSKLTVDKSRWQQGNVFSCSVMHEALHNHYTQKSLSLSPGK
# light: B1 light
# B7: VIC16-E333A (antibody)
# heavy: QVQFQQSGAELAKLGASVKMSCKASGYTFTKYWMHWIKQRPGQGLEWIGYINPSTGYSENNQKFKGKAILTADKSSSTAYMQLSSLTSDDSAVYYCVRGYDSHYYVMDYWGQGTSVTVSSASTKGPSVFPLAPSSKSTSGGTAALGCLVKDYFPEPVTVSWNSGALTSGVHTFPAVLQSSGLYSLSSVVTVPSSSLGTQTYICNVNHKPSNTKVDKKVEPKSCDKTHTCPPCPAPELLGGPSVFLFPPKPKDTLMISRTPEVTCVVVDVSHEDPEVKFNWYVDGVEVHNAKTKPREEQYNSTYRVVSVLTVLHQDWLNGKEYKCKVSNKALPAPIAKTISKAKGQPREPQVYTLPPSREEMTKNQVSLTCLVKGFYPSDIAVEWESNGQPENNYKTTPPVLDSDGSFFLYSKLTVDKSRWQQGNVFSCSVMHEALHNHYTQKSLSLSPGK
# light: B1 light
# B8: VIC16-SAEAKA-LS (antibody)
# heavy: B3 heavy with A239G, E270S, F271H, S301A, T327S, E335I, E336A, K337A, M431L, N437S
# light: B1 light
# B9: VIC16-SDIESA-LS (antibody)
# heavy: B3 heavy with A239G, S242D, E270S, F271H, S301A, T327S, M431L, N437S
# light: B1 light
# B10: VIC16-KWES (antibody)
# heavy: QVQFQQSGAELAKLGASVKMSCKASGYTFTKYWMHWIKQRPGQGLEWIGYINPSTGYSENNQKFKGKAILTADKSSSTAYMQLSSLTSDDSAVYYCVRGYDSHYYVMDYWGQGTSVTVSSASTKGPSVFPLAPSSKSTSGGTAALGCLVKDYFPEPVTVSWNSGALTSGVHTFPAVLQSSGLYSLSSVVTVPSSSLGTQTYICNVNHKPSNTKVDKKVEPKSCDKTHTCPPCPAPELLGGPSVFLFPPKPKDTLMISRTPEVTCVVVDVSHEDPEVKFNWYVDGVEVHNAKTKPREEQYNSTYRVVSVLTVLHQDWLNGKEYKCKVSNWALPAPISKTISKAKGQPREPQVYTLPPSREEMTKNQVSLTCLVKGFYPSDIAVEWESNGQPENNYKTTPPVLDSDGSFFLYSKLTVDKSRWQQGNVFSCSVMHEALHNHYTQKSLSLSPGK
# light: B1 light
# B11: VIC16-SAEAKA (antibody)
# heavy: B3 heavy with A239G, E270S, F271H, S301A, T327S, E335I, E336A, K337A
# light: B1 light
# B12: VIC16-EANA (antibody)
# heavy: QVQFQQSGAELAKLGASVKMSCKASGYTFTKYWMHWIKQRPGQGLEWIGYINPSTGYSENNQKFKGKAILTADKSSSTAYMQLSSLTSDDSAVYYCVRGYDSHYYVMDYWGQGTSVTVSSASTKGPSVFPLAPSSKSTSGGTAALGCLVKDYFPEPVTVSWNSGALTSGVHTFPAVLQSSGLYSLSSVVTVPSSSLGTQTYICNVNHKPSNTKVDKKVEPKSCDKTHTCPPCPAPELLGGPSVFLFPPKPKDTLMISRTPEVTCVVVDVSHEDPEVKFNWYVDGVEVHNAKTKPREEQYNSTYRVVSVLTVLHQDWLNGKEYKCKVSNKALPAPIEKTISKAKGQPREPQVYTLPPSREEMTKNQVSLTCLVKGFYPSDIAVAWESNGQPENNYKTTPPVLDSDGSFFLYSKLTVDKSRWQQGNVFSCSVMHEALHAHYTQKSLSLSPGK
# light: B1 light
# Assays:
# mouse FcγRIIb [1] = biological target: T1, mouse FcγRIIb (mouse, UniProt P08101 30-210); assay: BLI, mAb on anti-human Fab-CH1 sensor, FcγR in solution
# T1 construct: also called mFcγRIIb; mFcγR2b
# T1 sequence: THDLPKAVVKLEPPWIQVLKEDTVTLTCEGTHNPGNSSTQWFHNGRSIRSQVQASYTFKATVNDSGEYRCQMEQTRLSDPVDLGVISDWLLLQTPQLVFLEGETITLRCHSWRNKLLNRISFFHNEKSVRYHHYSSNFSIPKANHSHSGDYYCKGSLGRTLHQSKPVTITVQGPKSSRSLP
# mouse FcγRI = biological target: T2, mouse FcγRI (mouse, UniProt P26151 25-297); assay: as above
# T2 construct: also called mFcγRI
# T2 sequence: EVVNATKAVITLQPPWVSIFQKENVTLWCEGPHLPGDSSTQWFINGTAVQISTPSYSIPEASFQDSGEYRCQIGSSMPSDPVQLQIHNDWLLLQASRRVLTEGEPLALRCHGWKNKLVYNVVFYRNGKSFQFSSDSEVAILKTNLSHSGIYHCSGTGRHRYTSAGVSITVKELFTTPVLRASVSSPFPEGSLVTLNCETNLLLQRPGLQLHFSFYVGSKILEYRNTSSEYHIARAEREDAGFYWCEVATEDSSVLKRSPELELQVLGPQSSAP
# mouse FcγRIV [2] = biological target: T3, mouse FcγRIV (mouse, UniProt A0A0B4J1G0 21-203); assay: as above
# T3 construct: also called mFcγRIV
# T3 sequence: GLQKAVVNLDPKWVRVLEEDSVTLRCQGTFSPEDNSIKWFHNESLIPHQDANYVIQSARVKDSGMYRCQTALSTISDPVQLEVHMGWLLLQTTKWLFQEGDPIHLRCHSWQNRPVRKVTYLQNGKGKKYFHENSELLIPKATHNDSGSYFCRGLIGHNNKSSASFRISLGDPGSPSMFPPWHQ
# mouse FcγRIII = biological target: T4, mouse FcγRIII (mouse, UniProt P08508 31-215); assay: as above
# T4 construct: also called mFcγRIII; mFcγR3
# T4 sequence: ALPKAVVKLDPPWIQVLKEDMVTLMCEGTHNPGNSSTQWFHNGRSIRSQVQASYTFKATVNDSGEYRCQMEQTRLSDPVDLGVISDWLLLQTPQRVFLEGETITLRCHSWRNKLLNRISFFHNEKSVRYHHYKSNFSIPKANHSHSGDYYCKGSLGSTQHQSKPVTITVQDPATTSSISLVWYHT
# human FcγR2A (R131) [3] = biological target: T5, human FcγR2A (R131) (human, UniProt P12318 34-217); assay: SPR, mAb printed on chip, FcγR injected
# T5 construct: also called huFcγR2A
# T5 sequence: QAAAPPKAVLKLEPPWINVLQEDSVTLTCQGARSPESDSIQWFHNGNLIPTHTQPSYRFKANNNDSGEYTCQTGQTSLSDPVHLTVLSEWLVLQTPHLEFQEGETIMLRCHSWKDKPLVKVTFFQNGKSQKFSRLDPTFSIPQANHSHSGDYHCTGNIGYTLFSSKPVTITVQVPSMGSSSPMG
# human FcγR3B [4] = biological target: T6, human FcγR3B (human, UniProt O75015 17-200); assay: SPR, mAb printed on chip, FcγR injected
# T6 construct: also called huFcγR3B
# T6 sequence (O75015 17-200): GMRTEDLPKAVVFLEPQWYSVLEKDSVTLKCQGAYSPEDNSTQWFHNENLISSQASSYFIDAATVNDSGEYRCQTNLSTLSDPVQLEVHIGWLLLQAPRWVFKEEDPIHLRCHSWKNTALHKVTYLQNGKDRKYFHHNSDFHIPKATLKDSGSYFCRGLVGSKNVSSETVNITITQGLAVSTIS
# human FcγR2B = biological target: T7, human FcγR2B (human, UniProt P31994 43-217); assay: SPR, mAb printed on chip, FcγR injected
# T7 construct: also called huFcγR2B
# T7 sequence: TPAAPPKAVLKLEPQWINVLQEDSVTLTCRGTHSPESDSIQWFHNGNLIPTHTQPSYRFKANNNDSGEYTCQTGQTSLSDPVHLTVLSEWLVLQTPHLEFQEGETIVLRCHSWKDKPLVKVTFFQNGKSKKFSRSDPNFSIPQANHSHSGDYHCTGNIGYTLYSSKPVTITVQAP
# human FcγR3A (F158) = biological target: T8, human FcγR3A (F158) (human, UniProt P08637 17-208); assay: SPR, mAb printed on chip, FcγR injected
# T8 construct: also called huFcγR3A
# T8 sequence (P08637 17-208): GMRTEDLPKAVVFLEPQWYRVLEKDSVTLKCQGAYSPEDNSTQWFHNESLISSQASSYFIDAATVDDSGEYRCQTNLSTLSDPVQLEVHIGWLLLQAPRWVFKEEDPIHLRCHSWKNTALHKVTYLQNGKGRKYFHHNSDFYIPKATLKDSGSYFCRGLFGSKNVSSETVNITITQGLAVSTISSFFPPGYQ
# mouse FcγRIV [5] = biological target: T3, mouse FcγRIV; assay: SPR (IBIS MX96): mAb printed on the chip, recombinant FcγR injected at 10 to 0.005 µM; axis 'KD, M^-1', that is the reciprocal of KD
# [6] = biological target: T9, EBOV GP displayed on vesicular stomatitis virus (VSV) pseudovirions (Ebola virus, UniProt Q05320 33-676); assay: cell-based or functional assay
# T9 sequence: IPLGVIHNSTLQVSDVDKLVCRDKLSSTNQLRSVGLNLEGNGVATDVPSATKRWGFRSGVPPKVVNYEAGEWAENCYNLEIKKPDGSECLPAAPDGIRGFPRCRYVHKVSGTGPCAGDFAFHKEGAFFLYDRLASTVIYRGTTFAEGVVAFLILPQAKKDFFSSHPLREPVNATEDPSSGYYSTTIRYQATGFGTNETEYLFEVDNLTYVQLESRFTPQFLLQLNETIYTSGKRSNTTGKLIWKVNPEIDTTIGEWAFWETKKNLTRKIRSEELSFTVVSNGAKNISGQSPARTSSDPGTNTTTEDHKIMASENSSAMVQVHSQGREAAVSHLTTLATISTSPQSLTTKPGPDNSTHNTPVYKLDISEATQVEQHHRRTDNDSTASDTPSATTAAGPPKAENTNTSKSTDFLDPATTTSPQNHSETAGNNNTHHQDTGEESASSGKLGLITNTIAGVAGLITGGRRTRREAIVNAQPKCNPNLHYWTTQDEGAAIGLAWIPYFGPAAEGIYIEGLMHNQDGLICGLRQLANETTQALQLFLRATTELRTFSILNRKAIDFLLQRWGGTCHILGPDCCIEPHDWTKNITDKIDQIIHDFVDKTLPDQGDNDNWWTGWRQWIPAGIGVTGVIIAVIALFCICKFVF
# mouse FcγRIIb [7] = biological target: T1, mouse FcγRIIb; assay: BLI, mAb on anti-human Fab-CH1 sensor, FcγR in solution; remark: listed apart in the source
# human FcγR2A (R131) [8] = biological target: T5, human FcγR2A (R131); assay: SPR, mAb printed on chip, FcγR injected; remark: listed apart in the source
# mouse FcγRIIb [9] = biological target: T1, mouse FcγRIIb; assay: SPR (IBIS MX96): mAb printed on the chip, recombinant FcγR injected at 10 to 0.005 µM; axis 'KD, M^-1', that is the reciprocal of KD
# human FcγR3B [10] = biological target: T6, human FcγR3B; assay: as above
# human FcγR3B [11] = biological target: T6, human FcγR3B; assay: SPR, mAb printed on chip, FcγR injected; ND = not detected
binder,measurement,setting,value
B1,Kd,mouse FcγRIIb [1],14900 nM
same,fold-change relative to IgG1,mouse FcγRIIb [1],1 fold
same,Kd,mouse FcγRI,80 nM
same,fold-change relative to IgG1,mouse FcγRI,1 fold
same,Kd,mouse FcγRIV [2],240 nM
same,fold-change relative to IgG1,mouse FcγRIV [2],1 fold
same,Kd,mouse FcγRIII,2830 nM
same,fold-change relative to IgG1,mouse FcγRIII,1 fold
same,Kd,human FcγR2A (R131) [3],30000 nM
same,fold-change relative to IgG1,human FcγR2A (R131) [3],1 fold
same,Kd,human FcγR3B [4],25000 nM
same,fold-change relative to IgG1,human FcγR3B [4],1 fold
same,Kd,human FcγR2B,23000 nM
same,fold-change relative to IgG1,human FcγR2B,1 fold
same,Kd,human FcγR3A (F158),6100 nM
same,fold-change relative to IgG1,human FcγR3A (F158),1 fold
B2,binding result,mouse FcγRIV [5],binds
B3,"IC50, neutralization of VSV pseudotyped to display EBOV GP",[6],< 1 µg/mL
same,fold increase in binding,mouse FcγRIIb [7],2 fold
same,fold higher KD compared to IgG1,human FcγR2A (R131) [8],120 fold
same,Kd,mouse FcγRIIb [1],490 nM
same,fold-change relative to IgG1,mouse FcγRIIb [1],30 fold
same,Kd,mouse FcγRI,60 nM
same,fold-change relative to IgG1,mouse FcγRI,1.3 fold
same,Kd,mouse FcγRIV [2],120 nM
same,fold-change relative to IgG1,mouse FcγRIV [2],2 fold
same,Kd,mouse FcγRIII,1100 nM
same,fold-change relative to IgG1,mouse FcγRIII,9 fold
same,Kd,human FcγR2A (R131) [3],252 nM
same,fold-change relative to IgG1,human FcγR2A (R131) [3],119 fold
same,Kd,human FcγR3B [4],475000 nM
same,fold-change relative to IgG1,human FcγR3B [4],0.05 fold
same,Kd,human FcγR2B,1200 nM
same,fold-change relative to IgG1,human FcγR2B,19 fold
same,Kd,human FcγR3A (F158),6100 nM
same,fold-change relative to IgG1,human FcγR3A (F158),1 fold
B4,binding result,mouse FcγRIV [5],binds
B5,binding result,mouse FcγRIV [5],binds
B6,binding result,mouse FcγRIV [5],binds
B7,binding result,mouse FcγRIIb [9],binds
B8,binding result,human FcγR3B [10],binds
same,binding result,mouse FcγRIIb [9],binds
same,binding result,mouse FcγRIV [5],binds
B9,binding result,human FcγR3B [10],binds
same,binding result,mouse FcγRIV [5],binds
B10,binding result,human FcγR3B [11],no binding (tested: FcγR 10 µM to 0.005 µM)
same,"IC50, neutralization of VSV pseudotyped to display EBOV GP",[6],< 1 µg/mL
same,Kd,mouse FcγRIIb [1],46000 nM
same,fold-change relative to IgG1,mouse FcγRIIb [1],0.3 fold
same,Kd,mouse FcγRI,70 nM
same,fold-change relative to IgG1,mouse FcγRI,1.1 fold
same,Kd,mouse FcγRIV [2],160 nM
same,fold-change relative to IgG1,mouse FcγRIV [2],1.5 fold
same,Kd,mouse FcγRIII,20 nM
same,fold-change relative to IgG1,mouse FcγRIII,0.94 fold
same,Kd,human FcγR2A (R131) [3],8600 nM
same,fold-change relative to IgG1,human FcγR2A (R131) [3],3.4 fold
same,Kd,human FcγR2B,224000 nM
same,fold-change relative to IgG1,human FcγR2B,0.12 fold
same,Kd,human FcγR3A (F158),1600 nM
same,fold-change relative to IgG1,human FcγR3A (F158),3.8 fold
B11,binding result,mouse FcγRIIb [9],binds
same,binding result,mouse FcγRIV [5],binds
B12,binding result,mouse FcγRIIb [9],binds
